Experiments:
[1] = biological target: human FcRn-His-GST (FcRn fused to a His-tag and glutathione S transferase) (human) (UniProt P55899); assay: AlphaScreen competition, pH 6.0 (FIG. 13)
[2] = biological target: human FcRn-His-GST (FcRn fused to a His-tag and glutathione S transferase) (human) (UniProt P55899); assay: AlphaScreen competition vs wild-type Fc, pH 6.0 (FIG. 13)

UniProt P55899, sequence (P55899 24-297, chain 1 of 2): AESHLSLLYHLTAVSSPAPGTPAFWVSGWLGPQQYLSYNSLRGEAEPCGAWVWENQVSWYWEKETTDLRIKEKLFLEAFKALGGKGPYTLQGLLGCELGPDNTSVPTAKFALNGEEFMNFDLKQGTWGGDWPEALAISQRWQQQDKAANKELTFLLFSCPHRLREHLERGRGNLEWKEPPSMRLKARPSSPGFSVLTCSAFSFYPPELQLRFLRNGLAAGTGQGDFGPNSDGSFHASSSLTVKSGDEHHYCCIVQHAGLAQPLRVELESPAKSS
UniProt P55899, sequence (P61769 21-119, chain 2 of 2, further chain): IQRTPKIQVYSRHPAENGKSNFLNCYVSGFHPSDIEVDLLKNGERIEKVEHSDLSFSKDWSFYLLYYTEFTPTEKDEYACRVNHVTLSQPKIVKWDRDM

With “IgG1 Fc variant ^254N (Asn inserted after position 254; taken as in the anti-HER2 antibody trastuzumab)” as the substance, how does the percent of the binding affinity of the wild type [1] read?
Its percent of the binding affinity of the wild type is 1.1%.

How did the fold increase in FcRn affinity (vs wild type) [2] turn out when “IgG1 Fc variant N286# (deletion of N286; taken as in the anti-HER2 antibody trastuzumab)” was run?
Its fold increase in FcRn affinity (vs wild type) is 2 fold.

— patent US20250011440A1
